Reference: the supplement of paper PMC9732359
± gives the uncertainty stated by the source.

Test: protein stability index of a GFP-peptide fusion (yeast GPS) (PSI 1-4); higher = more stable; sorted into four equal gates, so the index is relative within each strain
How it was run: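 Tiled yeast protein peptides of 17 residues were each joined downstream of GFP, on plasmids that also express Cherry. The pooled library was maintained in yeast, and mid-log cultures in leucine-free medium were sorted into four equal gates on the GFP/Cherry ratio. Plasmids from every gate were amplified by PCR and sequenced on Illumina, with barcodes linking reads to strains. The protein stability index of a peptide is its gate-number-weighted read frequency summed over the gates.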

Row | Sequence | protein stability index (doa10∆) | protein stability index (pdr5∆) | protein stability index (san1∆) | protein stability index (ubr1∆)
1 | EPSYIFEYLATVMYQRR [PRE4] | 2.1 ± 0.081 | 2.46 ± 0.1 | 2.26 ± 0.091 | 2.12 ± 0.079
2 | ALVYSYIEASGREGIWS [RPC34] | 3.13 ± 0.24 | 2.87 ± 0.24 | 2.28 ± 0.17 | 2.52 ± 0.11
3 | IFLSKENSAVAAKEGLA [COR1] | 1.48 ± 0.058 | 2.19 ± 0.072 | 1.95 ± 0.14 | 1.6 ± 0.062
4 | NGKLTSANERLFGNRPS [YML031W/NDC1] | 2.72 ± 0.11 | 3.03 ± 0.076 | 2.69 ± 0.094 | 2.94 ± 0.066
5 | EEQEKINSAPDFTQEDE [ISW2] | 3.14 ± 0.11 | 3.56 ± 0.088 | 3.39 ± 0.081 | 3.55 ± 0.067
6 | QEYAIEMKIGSIESKLE [SMC1] | 2.84 ± 0.091 | 3.34 ± 0.12 | 2.74 ± 0.1 | 2.94 ± 0.093
7 | VAMCFVINKLDRLILDL [SNU114] | 2.23 ± 0.055 | 2.24 ± 0.056 | 2.15 ± 0.096 | 2.77 ± 0.04
8 | EMNLHVPQSEETRAELS [RPO21] | 3.17 ± 0.2 | 3.31 ± 0.092 | 3.1 ± 0.1 | 3.15 ± 0.11
9 | AMVEKYAPDVVRSLENL [RRP42] | 2.59 ± 0.13 | 2.81 ± 0.067 | 2.65 ± 0.052 | 3.14 ± 0.038
10 | ISSSTQCLRFLKETVIP [POP6] | 1.52 ± 0.074 | 1.87 ± 0.11 | 1.26 ± 0.22 | 2.27 ± 0.073
11 | DVDMEDRNLTEFDSTDT [RRI1] | 2.93 ± 0.12 | 3.09 ± 0.12 | 2.71 ± 0.13 | 3.01 ± 0.055
12 | LESGKETALEFLEKEKQ [SMC4] | 3.62 ± 0.12 | 3.46 ± 0.11 | 3.17 ± 0.071 | 3.48 ± 0.079
13 | IHNYDSKKSTITVRYWL [RGR1] | 3 ± 0.087 | 2.88 ± 0.081 | 2.69 ± 0.067 | 3.09 ± 0.049
14 | FANNHFLNSNAVVVGTG [COR1] | 1.41 ± 0.064 | 1.91 ± 0.061 | 2.33 ± 0.064 | 2.04 ± 0.056
15 | VEPVTERTKLQEHTIFT [SNU114] | 2.2 ± 0.2 | 2.35 ± 0.074 | 1.8 ± 0.21 | –
16 | LLVKLSKRLPLRFPEHT [BRR2] | 2.3 ± 0.063 | 2.75 ± 0.07 | 2.25 ± 0.17 | 2.42 ± 0.062
17 | KPKKPKGRAYKRLLYTR [RPS30A] | 3.13 ± 0.098 | 2.79 ± 0.11 | 3.02 ± 0.086 | 2.99 ± 0.055
18 | GATYRGKLVESEDSMNV [SMD3] | 3.17 ± 0.084 | 2.73 ± 0.053 | 3.01 ± 0.06 | 3.33 ± 0.055
19 | KGALMYGPPGTGKTLLA [RPT5] | 2.18 ± 0.074 | 2.24 ± 0.069 | 2.3 ± 0.18 | 1.35 ± 0.11
20 | AIVFEEIKNWISDIPYV [YMR129W/POM152] | 1.36 ± 0.043 | 1.42 ± 0.045 | 1.36 ± 0.075 | 1.72 ± 0.054
21 | YGRDDMENIKKSIDSKT [ISW2] | 2.87 ± 0.11 | 2.94 ± 0.1 | 3.21 ± 0.062 | 3.03 ± 0.082
22 | KVKILEQIDENWSKEDL [SWI3] | 3.12 ± 0.079 | 2.92 ± 0.091 | 2.88 ± 0.097 | 2.89 ± 0.091
23 | WDLLQSGSQNISEFDSF [RPN12] | 3.38 ± 0.16 | 3.14 ± 0.09 | 3.05 ± 0.12 | 3.22 ± 0.067
24 | SSNISPEQVYSLLLTNV [ARP7] | 2.27 ± 0.035 | 2.48 ± 0.036 | 2.43 ± 0.04 | 2.46 ± 0.033
25 | PSAFNFTGNNSTPGGGS [YOR098C/NUP1] | – | – | 3.14 ± 0.13 | –
26 | TTNMNVNNCIWALKSSL [RGR1] | 2.26 ± 0.068 | 1.32 ± 0.065 | 1.36 ± 0.21 | 1.25 ± 0.046
27 | QTFGVDILAKLFSLEKP [SWI1] | 2.81 ± 0.063 | 2.52 ± 0.061 | 2.58 ± 0.058 | 2.51 ± 0.046

Row | Sequence | protein stability index (doa10∆) | protein stability index (pdr5∆) | protein stability index (san1∆) | protein stability index (ubr1∆)
28 | FVMKTRRRKGISTGGFM [SNU114] | 3.44 ± 0.15 | – | – | 3.18 ± 0.11
29 | TDYLYRRLHDENLMVQR [YCS4] | 2.44 ± 0.089 | 2.08 ± 0.063 | 2.45 ± 0.067 | 2.38 ± 0.076
30 | EEAAGTKMFEDRREKAE [SMC2] | 3.4 ± 0.15 | 3.36 ± 0.18 | 3.26 ± 0.089 | 3.6 ± 0.11
31 | VPEMIGSVVGIYNGKAF [RPS15] | 1.27 ± 0.15 | 1.34 ± 0.074 | 1.66 ± 0.24 | 1.41 ± 0.072
32 | PSTDKNEKKTETNAKPF [YLR335W/NUP2] | 3.32 ± 0.11 | 3.28 ± 0.094 | 3.34 ± 0.044 | 3.33 ± 0.096
33 | TNSTYNPASATDNMSGR [YJL039C/NUP192] | 2.71 ± 0.058 | 2.73 ± 0.063 | 2.47 ± 0.054 | 2.56 ± 0.052
34 | RGTIPLLERYIGNLITR [PRP8] | 1.52 ± 0.055 | 1.55 ± 0.045 | 1.48 ± 0.08 | 1.6 ± 0.039
35 | DLEGRANIFRIHSKSMS [RPT1] | – | – | 3.21 ± 0.25 | –
36 | EELILPNTKDAMSLYHS [PRP8] | 3.18 ± 0.055 | 3.38 ± 0.043 | 3.36 ± 0.04 | 2.8 ± 0.042
37 | GRILQNLLHSYMEKGTQ [YML103C/NUP188] | 2.66 ± 0.14 | 2.51 ± 0.096 | 1.96 ± 0.086 | 2.51 ± 0.12
38 | SAEDQLYAITFRKGLGN [QCR2] | 3.06 ± 0.12 | 3.14 ± 0.16 | 2.96 ± 0.2 | 3.03 ± 0.17
39 | INCNKETIENVKLQMIK [ECM29] | 3.21 ± 0.097 | 3.03 ± 0.16 | 2.93 ± 0.089 | 3.4 ± 0.13
40 | PERWLPLRDRSTYRPKK [SRP72] | 3.29 ± 0.2 | 3.05 ± 0.22 | 2.89 ± 0.2 | 3.64 ± 0.28
41 | ILNELEVFIGRVKDQDG [YJR042W/NUP85] | 3.06 ± 0.14 | 3.05 ± 0.18 | 3 ± 0.12 | 2.59 ± 0.059
42 | IDRKVEFSLPDLEGRAN [RPT1] | 3.15 ± 0.097 | 3.37 ± 0.1 | 3.08 ± 0.17 | 3.18 ± 0.1
43 | SLEMVPKDTSAATMTSA [RGR1] | 2.47 ± 0.11 | 2.77 ± 0.12 | 2.73 ± 0.088 | 2.93 ± 0.088
44 | QVPSSLIVRAKNHTHNL [RRP4] | 2.56 ± 0.076 | 2.89 ± 0.06 | 2.67 ± 0.072 | 2.87 ± 0.055
45 | HEEDQKTNIIEKAMDYA [RPN12] | 2.52 ± 0.087 | 2.75 ± 0.078 | 2.37 ± 0.084 | 3.02 ± 0.096
46 | YASKINRAEGPEELARI [RGR1] | 3.31 ± 0.12 | 3.26 ± 0.085 | 3.31 ± 0.067 | 3.24 ± 0.071
47 | NDPEYMDTSDDAFVATA [DLS1] | 3.1 ± 0.17 | 3.49 ± 0.16 | 3.33 ± 0.14 | –
48 | VKVVDAGNKVGQSEASL [RPP0] | – | 3.58 ± 0.22 | – | –
49 | ILGQTMSIGTGSFKVVK [RPO31] | – | 2.47 ± 0.13 | 1.97 ± 0.12 | 2.99 ± 0.15
50 | VNEPTKNEEAEIEVDEM [RPN1] | 3.25 ± 0.17 | 3.22 ± 0.23 | 3.08 ± 0.14 | 3.45 ± 0.16
51 | ITSINVENDTFIERNFT [FAS2] | 3.01 ± 0.089 | 2.68 ± 0.081 | 3.17 ± 0.072 | 3.19 ± 0.05
52 | LDSNFNLQREIDQAHVS [RPN14] | 2.49 ± 0.045 | 2.75 ± 0.061 | 2.56 ± 0.059 | 2.65 ± 0.054
53 | LQPFYSQPTAAGGPDMT [DSN1] | 1.54 ± 0.049 | 1.51 ± 0.047 | 1.88 ± 0.077 | 1.62 ± 0.039
54 | QLSNWQKIRNSEGISEA [ITC1] | 2.94 ± 0.06 | 2.96 ± 0.083 | 2.97 ± 0.065 | 2.8 ± 0.073
